Measurements as given in PMC9482650, “Quantitative fragmentomics allow affinity mapping of interactomes” (Nature Communications, 2022).

T1: APBA1_2, Q02410
T1 sequence (Q02410 742-832, limits assumed, looked up): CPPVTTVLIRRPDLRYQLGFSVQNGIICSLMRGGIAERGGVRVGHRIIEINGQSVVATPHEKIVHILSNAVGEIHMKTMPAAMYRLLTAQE

T2: APBA2_2, Q99767
T2 sequence (Q99767 654-744, limits assumed, looked up): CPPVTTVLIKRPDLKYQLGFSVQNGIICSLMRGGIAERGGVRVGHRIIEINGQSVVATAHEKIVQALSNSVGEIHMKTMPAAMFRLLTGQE

T3: GRIP1_7, Q9Y3R0
T3 sequence (Q9Y3R0 999-1096, limits assumed, looked up): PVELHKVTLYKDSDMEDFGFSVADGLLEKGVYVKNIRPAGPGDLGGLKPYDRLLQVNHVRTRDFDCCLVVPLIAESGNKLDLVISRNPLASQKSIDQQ

T4: HTRA4, P83105
T4 sequence (P83105 378-476, limits assumed, looked up): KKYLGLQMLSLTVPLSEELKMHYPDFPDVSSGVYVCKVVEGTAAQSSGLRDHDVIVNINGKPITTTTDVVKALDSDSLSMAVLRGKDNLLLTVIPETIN

T5: MPDZ_5, O75970
T5 sequence (O75970 695-796, limits assumed, looked up): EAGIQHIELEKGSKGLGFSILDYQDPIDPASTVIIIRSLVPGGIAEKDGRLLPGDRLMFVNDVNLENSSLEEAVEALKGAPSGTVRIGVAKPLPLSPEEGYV

T6: MPP2, Q14168
T6 sequence (Q14168 180-250, limits assumed, looked up): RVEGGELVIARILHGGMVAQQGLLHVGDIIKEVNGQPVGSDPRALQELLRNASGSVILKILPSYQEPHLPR

T7: MPP6, Q9NZW5
T7 sequence (Q9NZW5 125-219, limits assumed, looked up): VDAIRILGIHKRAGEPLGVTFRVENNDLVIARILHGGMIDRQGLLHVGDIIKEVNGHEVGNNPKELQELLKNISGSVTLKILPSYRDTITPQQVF

T8: MPP7, Q5T2T1
T8 sequence (Q5T2T1 134-230, limits assumed, looked up): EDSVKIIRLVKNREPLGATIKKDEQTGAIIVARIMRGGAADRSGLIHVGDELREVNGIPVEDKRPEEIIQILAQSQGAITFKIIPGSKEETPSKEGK

T9: PCLO, Q9Y6V0
T9 sequence (Q9Y6V0 4491-4600, limits assumed, looked up): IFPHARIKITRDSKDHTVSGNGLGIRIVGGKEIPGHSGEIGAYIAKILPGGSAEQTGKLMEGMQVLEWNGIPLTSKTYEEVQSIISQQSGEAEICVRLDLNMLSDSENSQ

T10: SNTG2, Q9NY99
T10 sequence (Q9NY99 68-166, limits assumed, looked up): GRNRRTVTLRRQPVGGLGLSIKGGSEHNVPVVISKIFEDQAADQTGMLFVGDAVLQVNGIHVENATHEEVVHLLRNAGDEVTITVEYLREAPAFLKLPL

T11: ARHGAP21, Q5T5U3
T11 sequence (Q5T5U3 45-169, limits assumed, looked up): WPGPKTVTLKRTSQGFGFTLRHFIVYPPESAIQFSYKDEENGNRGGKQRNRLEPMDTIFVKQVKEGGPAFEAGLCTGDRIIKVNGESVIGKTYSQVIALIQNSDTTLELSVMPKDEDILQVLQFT

T12: MPDZ_10, O75970
T12 sequence (O75970 1624-1722, limits assumed, looked up): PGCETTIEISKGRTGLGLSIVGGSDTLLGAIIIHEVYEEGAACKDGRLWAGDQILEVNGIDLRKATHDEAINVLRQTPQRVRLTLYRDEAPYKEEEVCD


Experiments:
Assay in all cases: holdup assay
Parameters in all cases: key: below the threshold = too weak to quantify, mostly under pKd 3.1 to 4
Conditions in all cases: plain residues with an end cap or a label only (N-terminal biotin on a linker: ado-ado)
APBA1_2, Q02410 = target: T1, APBA1_2, Q02410
APBA2_2, Q99767 = target: T2, APBA2_2, Q99767
DLG1_1, Q12959 = target: DLG1_1, Q12959
GRIP1_7, Q9Y3R0 = target: T3, GRIP1_7, Q9Y3R0
GRIP2_3, Q9C0E4 = target: GRIP2_3, Q9C0E4
GRIP2_3, Q9C0E4, sequence (Q9C0E4 238-339): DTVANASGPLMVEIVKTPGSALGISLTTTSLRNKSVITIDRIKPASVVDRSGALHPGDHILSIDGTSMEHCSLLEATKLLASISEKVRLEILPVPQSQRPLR

GRIP2_4, Q9C0E4 = target: GRIP2_4, Q9C0E4
GRIP2_4, Q9C0E4, sequence (Q9C0E4 446-548): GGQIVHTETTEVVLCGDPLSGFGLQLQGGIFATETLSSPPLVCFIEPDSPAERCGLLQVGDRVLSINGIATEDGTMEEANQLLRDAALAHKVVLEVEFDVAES

GRIP2_5, Q9C0E4 = target: GRIP2_5, Q9C0E4
GRIP2_5, Q9C0E4, sequence (Q9C0E4 544-642): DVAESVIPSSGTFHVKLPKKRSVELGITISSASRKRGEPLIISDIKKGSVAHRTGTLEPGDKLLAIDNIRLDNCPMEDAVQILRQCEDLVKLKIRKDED

HTRA4, P83105 = target: T4, HTRA4, P83105
IL16_1, Q14005 = target: IL16_1, Q14005
IL16_1, Q14005, sequence (Q14005 210-306): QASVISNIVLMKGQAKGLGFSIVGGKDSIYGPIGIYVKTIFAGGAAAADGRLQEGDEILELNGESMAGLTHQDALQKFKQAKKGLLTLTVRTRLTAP

LAP2, Q96RT1 = target: LAP2, Q96RT1
LAP2, Q96RT1, sequence (Q96RT1 other isoform, or with tags, fused parts or gaps): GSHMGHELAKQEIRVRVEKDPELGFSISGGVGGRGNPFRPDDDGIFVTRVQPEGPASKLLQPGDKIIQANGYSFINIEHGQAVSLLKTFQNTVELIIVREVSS

MAGI2_3, Q86UL8 = target: MAGI2_3, Q86UL8
MAGI2_3, Q86UL8, sequence (Q86UL8 600-682): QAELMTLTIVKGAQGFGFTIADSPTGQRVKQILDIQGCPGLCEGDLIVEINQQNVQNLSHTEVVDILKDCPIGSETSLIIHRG

MAGI2_6, Q86UL8 = target: MAGI2_6, Q86UL8
MAGI2_6, Q86UL8, sequence (Q86UL8 1141-1229): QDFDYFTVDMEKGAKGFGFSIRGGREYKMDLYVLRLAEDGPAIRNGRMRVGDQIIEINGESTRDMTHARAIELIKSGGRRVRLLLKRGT

MAGI3_2, Q5TCQ9 = target: MAGI3_2, Q5TCQ9
MAGI3_2, Q5TCQ9, sequence (Q5TCQ9 398-503): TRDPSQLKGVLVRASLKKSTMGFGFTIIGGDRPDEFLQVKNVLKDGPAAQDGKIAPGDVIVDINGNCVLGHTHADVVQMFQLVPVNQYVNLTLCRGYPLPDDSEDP

MPDZ_5, O75970 = target: T5, MPDZ_5, O75970
MPP2, Q14168 = target: T6, MPP2, Q14168
MPP6, Q9NZW5 = target: T7, MPP6, Q9NZW5
MPP7, Q5T2T1 = target: T8, MPP7, Q5T2T1
NHERF2_2, Q15599 = target: NHERF2_2, Q15599
NHERF2_2, Q15599, sequence (Q15599 142-238): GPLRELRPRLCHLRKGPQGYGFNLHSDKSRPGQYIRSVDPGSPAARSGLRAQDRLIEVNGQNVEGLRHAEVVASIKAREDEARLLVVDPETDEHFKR

NHERF4_2, Q86UT5 = target: NHERF4_2, Q86UT5
NHERF4_2, Q86UT5, sequence (Q86UT5 220-308): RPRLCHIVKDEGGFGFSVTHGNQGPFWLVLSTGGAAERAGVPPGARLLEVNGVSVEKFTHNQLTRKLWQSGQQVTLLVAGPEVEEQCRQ

PCLO, Q9Y6V0 = target: T9, PCLO, Q9Y6V0
SCRIB_2, Q14160 = target: SCRIB_2, Q14160
SCRIB_2, Q14160, sequence (Q14160 857-960): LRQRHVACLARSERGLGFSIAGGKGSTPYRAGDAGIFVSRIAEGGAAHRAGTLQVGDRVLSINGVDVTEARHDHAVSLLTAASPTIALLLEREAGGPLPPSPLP

SNTG2, Q9NY99 = target: T10, SNTG2, Q9NY99
ARHGAP21, Q5T5U3 = target: T11, ARHGAP21, Q5T5U3
DLG1_3, Q12959 = target: DLG1_3, Q12959
LNX1_1, Q8TBB1 = target: LNX1_1, Q8TBB1
LNX1_1, Q8TBB1, sequence (Q8TBB1 261-371): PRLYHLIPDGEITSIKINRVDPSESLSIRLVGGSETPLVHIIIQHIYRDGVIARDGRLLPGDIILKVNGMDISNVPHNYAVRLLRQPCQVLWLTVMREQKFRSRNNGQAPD

MPDZ_10, O75970 = target: T12, MPDZ_10, O75970

Row | Binder | pKd (APBA1_2, Q02410) | pKd (APBA2_2, Q99767) | pKd (DLG1_1, Q12959) | pKd (GRIP1_7, Q9Y3R0) | pKd (GRIP2_3, Q9C0E4) | pKd (GRIP2_4, Q9C0E4) | pKd (GRIP2_5, Q9C0E4) | pKd (HTRA4, P83105) | pKd (IL16_1, Q14005) | pKd (LAP2, Q96RT1) | pKd (MAGI2_3, Q86UL8) | pKd (MAGI2_6, Q86UL8) | pKd (MAGI3_2, Q5TCQ9) | pKd (MPDZ_5, O75970) | pKd (MPP2, Q14168) | pKd (MPP7, Q5T2T1) | pKd (NHERF2_2, Q15599) | pKd (NHERF4_2, Q86UT5) | pKd (PCLO, Q9Y6V0) | pKd (SCRIB_2, Q14160) | other results
1 | EYRKDNKVAA [LSM14A, Q8ND56;Q8ND56-2] | below the threshold | below the threshold | below the threshold | below the threshold | below the threshold | below the threshold | below the threshold | below the threshold | below the threshold | below the threshold | below the threshold | below the threshold | below the threshold | below the threshold | below the threshold | below the threshold | below the threshold | below the threshold | below the threshold | below the threshold | pKd (MPP6, Q9NZW5): below the threshold; pKd (SNTG2, Q9NY99): below the threshold
2 | LRYARPADAL [PPP1R3G, B7ZBB8] | 3.82 | below the threshold | below the threshold | below the threshold | below the threshold | below the threshold | below the threshold | 3.92 | below the threshold | below the threshold | below the threshold | below the threshold | below the threshold | below the threshold | below the threshold | below the threshold | below the threshold | below the threshold | below the threshold | below the threshold | pKd (ARHGAP21, Q5T5U3): 3.9; pKd (DLG1_3, Q12959): below the threshold; pKd (LNX1_1, Q8TBB1): below the threshold; pKd (MPDZ_10, O75970): below the threshold; pKd (MPP6, Q9NZW5): below the threshold; pKd (SNTG2, Q9NY99): below the threshold
3 | GDHLDRRVVL [VAC14, Q08AM6] | below the threshold | below the threshold | below the threshold | below the threshold | below the threshold | below the threshold | below the threshold | 3.92 | below the threshold | 3.93 | 3.54 | below the threshold | below the threshold | below the threshold | below the threshold | below the threshold | below the threshold | below the threshold | below the threshold | 3.64 | pKd (ARHGAP21, Q5T5U3): 3.54; pKd (DLG1_3, Q12959): below the threshold; pKd (LNX1_1, Q8TBB1): below the threshold; pKd (MPDZ_10, O75970): 3.51; pKd (MPP6, Q9NZW5): 3.51; pKd (SNTG2, Q9NY99): below the threshold
4 | KSTTRSSSSC [NDE1, Q9NXR1;Q9NXR1-2] | below the threshold | below the threshold | below the threshold | below the threshold | below the threshold | below the threshold | below the threshold | below the threshold | below the threshold | below the threshold | below the threshold | below the threshold | below the threshold | below the threshold | below the threshold | below the threshold | below the threshold | below the threshold | below the threshold | below the threshold | pKd (ARHGAP21, Q5T5U3): below the threshold; pKd (DLG1_3, Q12959): below the threshold; pKd (LNX1_1, Q8TBB1): below the threshold; pKd (MPDZ_10, O75970): below the threshold; pKd (SNTG2, Q9NY99): below the threshold
